Experimental data taken from US20110183861A1 (ABLYNN N V, published 2011).
Substitutions are numbered along the chain they refer to. Names and notes keep the numbering of the source. Each block holds one binder with its values, some of them ahead of it.

What was measured:
human RANKL [1] = target: T1, human RANKL (human, UniProt O14788 140-317, limits assumed); assay: AlphaScreen competition against the human RANKL / human RANK-Fc interaction
T1 sequence (looked up): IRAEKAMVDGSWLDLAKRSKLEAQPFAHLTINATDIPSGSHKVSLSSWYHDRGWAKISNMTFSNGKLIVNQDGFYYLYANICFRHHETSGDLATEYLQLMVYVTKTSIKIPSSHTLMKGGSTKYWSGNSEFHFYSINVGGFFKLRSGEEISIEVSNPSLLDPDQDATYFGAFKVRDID
Experimental: (§1) Finally, streptavidin coated donor beads (20 ug/ml) were added. After 1 hour of incubation plates were read on the Envison Alphascreen reader (PerkinElmer). All experiments were performed in duplicate.

human RANKL [2] = target: T1, human RANKL; assay: AlphaScreen competition: Nanobody titrated against the interaction of human RANKL (1 nM) with biotinylated human RANK-Fc (3 nM); acceptor beads with anti-RANKL MAb BN-12, streptavidin donor beads
Experimental: as §1

A1 domain of vWF [3] = target: T2, A1 domain of vWF (UniProt P04275 1261-1468, limits assumed); assay: SPR (BIAcore), vWF A1 domain on sensor-chip
T2 construct: domain: A1 domain; also called vWF A1 domain
Experimental: (§2) The kinetic constants, kₒₙ and koff, were deduced from the obtained sensorgrams and used to calculate the equilibrium dissociation constant, KD. […] For these experiments, the samples were diluted to a 2 nM concentration. The initial binding rate was determined from the association phase of the sensorgram by linear fitting of the data points obtained between 5 and 25 seconds after the injection start and the reported value is the average of 5 independent measurements.

A1 domain of vWF [4] = target: T2, A1 domain of vWF; assay: BIAcore initial binding rate, vWF A1 domain on sensor-chip, stored sample
Experimental: as §2

A1 domain of vWF [5] = target: T2, A1 domain of vWF; assay: SPR (BIAcore), vWF A1 domain on sensor-chip; remark: listed apart in the source
Experimental: as §2

A1 domain of vWF [6] = target: T2, A1 domain of vWF; assay: SPR (BIAcore), immobilized vWF A1 domain; M34A mutant
Experimental: as §2

A1 domain of vWF [7] = target: T2, A1 domain of vWF; assay: SPR (BIAcore), immobilized vWF A1 domain; M78A mutant
Experimental: as §2

A1 domain of vWF [8] = target: T2, A1 domain of vWF; assay: SPR (BIAcore), immobilized vWF A1 domain; M83A mutant
Experimental: as §2

A1 domain of vWF [9] = target: T2, A1 domain of vWF; assay: SPR (Biacore), A1 domain of VWF
A1 domain of vWF [10] = target: T2, A1 domain of vWF; assay: PLA potency assay (Biacore) on RPC fraction, first experiment
Experimental: (§3) To determine the potency (i.e. looking at affinity measurements) of the −18Da product related variant, post-peak 1 was collected during RP-HPLC separation and directly measured in the PLA potency assay. Similar to what was done for pre-peak 1, the elution fraction representing post-peak 1 was first dried using a speedvac (miVac Duo Concentrator, Genevac) and then re-solubilized in PBS. […] Three independent but slightly different experiments were performed. In a first experiment the concentration after reconstitution was determined spectrophotometrically and no Tween was added to the PBS. In a second experiment, 0.02% Tween was present in the PBS at the time of reconstitution of the dried material (to prevent loss of protein from the relatively dilute samples) and the concentration was deduced from the peak area in a re-analysis by RP-HPLC. The RPC re-analysis also confirmed the identity of the isolated material. In a third experiment, we additionally diluted the purified main peak material to about the same concentration as the post-peak variant so to eliminate as much as possible any dissimilarities between the main and the post-peak samples. […]

A1 domain of vWF [11] = target: T2, A1 domain of vWF; assay: PLA potency assay (Biacore) on RPC fraction, second experiment
Experimental: as §3

A1 domain of vWF [12] = target: T2, A1 domain of vWF; assay: Biacore potency assay

B1: RANKL-1_D62E (VHH)
VHH: EVQLVESGGGLVQPGGSLRLSCAASGFTFSSYPMGWFRQAPGKGREFVSSITGSGGSTYYAESVKGRFTISRDNAKNTLYLQMNSLRPEDTAVYYCAAYIRPDTYLSRDYRKYDYWGQGTLVTVSS
notes: Expressed from pAX054 in the periplasm of E. coli; not shown: C-terminal c-myc tag and (His)6 tag coded by vector pAX054
IC50 (read off the curve) (human RANKL [1]): ~0.1 nM

B2: RANKL-1 (VHH)
VHH: B1 VHH with E62D
notes: as for B1
IC50 (read off the curve) (human RANKL [1]): ~0.1 nM
IC50 (human RANKL [2]): 0.114 nM

B3: SEQ ID NO: 2 D62A (VHH)
VHH: EVQLVESGGGLVQPGGSLRLSCAASGRTFSYNPMGWFRQAPGKGRELVAAISRTGGSTYYPASVEGRFTISRDNAKRMVYLQMNSLRAEDTAVYYCAAAGVRAEDGRVRTLPSEYTFWGQGTQVTVSS
Kd (A1 domain of vWF [3]): 1 nM
% activity after 4 wks at 37° C. (initial binding rate against time zero) (A1 domain of vWF [4]): 88.4%
% activity after 8 wks at 37° C. (initial binding rate against time zero) (A1 domain of vWF [4]): 87.4%

B4: SEQ ID NO: 2 D62E (VHH)
VHH: B3 VHH with A62E
Kd (A1 domain of vWF [3]): 1.3 nM
% activity after 4 wks at 37° C. (initial binding rate against time zero) (A1 domain of vWF [4]): 89.6%
% activity after 8 wks at 37° C. (initial binding rate against time zero) (A1 domain of vWF [4]): 80.2%

B5: SEQ ID NO: 2 D105A (VHH)
VHH: B3 VHH with A62D, D105A
fold drop in affinity against wild type SEQ ID NO: 2 (A1 domain of vWF [5]): 10 fold
Kd (A1 domain of vWF [3]): 9.3 nM
% activity after 8 wks at 37° C. (initial binding rate against time zero) (A1 domain of vWF [4]): 98.7%

B6: SEQ ID NO: 2 D105E (VHH)
VHH: B3 VHH with A62D, D105E
Kd (A1 domain of vWF [3]): 4.4 nM
% activity after 8 wks at 37° C. (initial binding rate against time zero) (A1 domain of vWF [4]): 98.8%

B7: SEQ ID NO: 2 D105N (VHH)
VHH: B3 VHH with A62D, D105N
Kd (A1 domain of vWF [3]): 0.8 nM
% activity after 4 wks at 37° C. (initial binding rate against time zero) (A1 domain of vWF [4]): 29.5%
% activity after 8 wks at 37° C. (initial binding rate against time zero) (A1 domain of vWF [4]): 32.7%

B8: SEQ ID NO: 2 D105Q (VHH)
VHH: B3 VHH with A62D, D105Q
Kd (A1 domain of vWF [3]): 1.1 nM
% activity after 4 wks at 37° C. (initial binding rate against time zero) (A1 domain of vWF [4]): 97.6%
% activity after 8 wks at 37° C. (initial binding rate against time zero) (A1 domain of vWF [4]): 90.8%

B16: SEQ ID NO: 1, ALX-0081 (VHH)
chain: EVQLVESGGGLVQPGGSLRLSCAASGRTFSYNPMGWFRQAPGKGRELVAAISRTGGSTYYPDSVEGRFTISRDNAKRMVYLQMNSLRAEDTAVYYCAAAGVRAEDGRVRTLPSEYTFWGQGTQVTVSSAAAEVQLVESGGGLVQPGGSLRLSCAASGRTFSYNPMGWFRQAPGKGRELVAAISRTGGSTYYPDSVEGRFTISRDNAKRMVYLQMNSLRAEDTAVYYCAAAGVRAEDGRVRTLPSEYTFWGQGTQVTVSS
notes: Produced in E. coli; also called BATCH 1; RPC main peak
potency relative to reference SEQ ID NO:1 (A1 domain of vWF [10]): 91.9%
potency relative to reference SEQ ID NO:1 (A1 domain of vWF [11]): 50%

B17: SEQ ID NO: 1 E1Q, fraction E1Q-a (cyclized pyroglutamate form) (VHH)
chain: B16 chain with E1Q
modifications: N-terminal pyroglutamate (cyclized Q1)
notes: Fraction of the E1Q mutant from a monoS column; mass 27857 Da
potency relative to BATCH 1 (average) (A1 domain of vWF [12]): 105%

B18: SEQ ID NO: 1 RPC post-peak 1 (single norleucine mis-incorporation, -18 Da) (VHH)
chain: B16 chain
modifications: norleucine in place of one methionine (site not determined), -18 Da
notes: Collected from RP-HPLC and reconstituted before the potency assay; also called -18Da product related variant
potency relative to reference SEQ ID NO:1 (A1 domain of vWF [10]): 51.6%
potency relative to reference SEQ ID NO:1 (A1 domain of vWF [11]): 81%

Further lines, results first:

Kd (A1 domain of vWF [3]): 3.7 nM
% activity after 4 wks at 37° C. (initial binding rate against time zero) (A1 domain of vWF [4]): 93.7%
% activity after 8 wks at 37° C. (initial binding rate against time zero) (A1 domain of vWF [4]): 94.2%
B9: SEQ ID NO: 2 D105S (VHH)
VHH: B3 VHH with A62D, D105S

Kd (A1 domain of vWF [3]): 7.2 nM
% activity after 4 wks at 37° C. (initial binding rate against time zero) (A1 domain of vWF [4]): 101%
% activity after 8 wks at 37° C. (initial binding rate against time zero) (A1 domain of vWF [4]): 96%
B10: SEQ ID NO: 2 D105T (VHH)
VHH: B3 VHH with A62D, D105T

Kd (A1 domain of vWF [6]): 1.96 nM
B11: SEQ ID NO: 2 M34A (VHH)
VHH: B3 VHH with M34A, A62D

Kd (A1 domain of vWF [7]): 1.46 nM
B12: SEQ ID NO: 2 M78A (VHH)
VHH: B3 VHH with A62D, M78A

Kd (A1 domain of vWF [8]): 1.29 nM
B13: SEQ ID NO: 2 M83A (VHH)
VHH: B3 VHH with A62D, M83A

Kd (A1 domain of vWF [3]): 1.2 nM
% activity after 4 wks at 37° C. (initial binding rate against time zero) (A1 domain of vWF [4]): 95.5%
% activity after 8 wks at 37° C. (initial binding rate against time zero) (A1 domain of vWF [4]): 83.8%
B14: SEQ ID NO: 2 S63G (VHH)
VHH: B3 VHH with A62D, S63G

Kd (A1 domain of vWF [9]): 0.986 nM
koff (A1 domain of vWF [9]): 0.0207 s⁻¹
kon (A1 domain of vWF [9]): 2.1e+07 M⁻¹ s⁻¹
B15: Stab. 12A2H1; SEQ ID NO: 2 with E1D, D62E, M78T, D105Q (VHH)
VHH: B3 VHH with E1D, A62E, M78T, D105Q
notes: also called 12A2H1 SV1; 12A2h1SV1
